B1: mAb1512 (antibody, V domains shown)
VH: KVQLVQSGGGVVQPGRSQRLSCAASGLTLSEYAMHWVRQAPGKGLEWVAVILSDGTKKEYADSVKGRFTISRDNSKNTLYLQMNSLRAEDTAVYYCATDDNILGHCRSKSCQRNYYHGMDVWGQGTTVSVSS
VL: DIVMTQSPLSLPVTPGEPASISCRSSQSLLHSNGKNYLDWYLQKPGQSPQLLIYLGSDRASGVPDRFSGSGSGTDFTLSISRVEAEDVGVYYCMQALQTPFTFGPGTKVDIK
B2: mAb1488 (antibody, V domains shown)
VH: EVHLVESGGGLVKPGGSLRLSCAASGFTFSSYTMNWVRQAPGKGLEWVSSISSSSTYIYYADSVRGRFTISRDNAKNSLYLQMNSLRAEDSAVYYCARRAGGFDAYYFDYWGQGTLVTVSS
VL: not shown
B3: mAb234 (antibody, V domains shown)
VH: EVQLVESGGGLVKPGGSLRLSCAASGFNFSTHIMNWVRQAPGKGLEWVSSISSSGTYIYYADSMKGRFTISRDNPKNSLYLQMNSLRAEDTAVYYCARARGFIQFHYYMDVWGKGTTVAVSS
VL: SYVLTQPPSVSVAPGKTARITCGGNNIGSKSVHWHQQRPGQAPVLVVYDDKIRPSGIPERFSGSNSGNTATLIISRVEAGDEADYYCQVWHSSSDPVVFGGGTKLTVL
B4: mAb236 (antibody, V domains shown)
VH: EVQLVESGGGLVQPGGSLRLSCVASGFNFTTYSMNWVRQAPGKGLEWVSYISSHSNLIYYATSVKGRFTISRDNAKNSLYLQMNSLRAEDTALYYCARGGSLHPSAGADWIDPWGQGTLVTVSS
VL: SYELTQAPSVSVSPGQTATITCSGDKLGDKFTSWYQQKPGQSPVLVIYQDSKRPSGIPERFSASNSGNTATLTISGTRAMDEADYYCQAWDSNTYVFGTGTRVAVL
B5: mAb352 (antibody, V domains shown)
VH: EVQLVESGGGLVKPGGSLRLSCAASGFSFSEYRMNWVRQAPGKGLEWVSFISSSGTYIDYADSVKGRFTISRDNVNNSLYLQMNNLRAGDTAVYYCARGMGIAVRRFDYWGQGTLVSVSS
VL: SYVLTQPPSVSVAPGQTAKITCGGNNIGSESVHWYQQKPGQAPVLVVYDDAVRPSGIPERFSGSNSRNTATLTISRVEAGDEAAYYCQVWDSSTVASFGGGTKLTVL

The assay concerns the target reference 3D7 ctCSP peptide (P. falciparum 3D7). Put plainly: SPR.
The term Kd denotes a measure of binding affinity in units of concentration. Higher therefore signals lower affinity. B1 had a Kd of 0.0291 nM. For the molecule B2, the dissociation constant (Kd) is 0.36 nM.

Take B3: the Kd was determined as 0.00377 nM. Consider B4, for which the Kd was found to be 0.00278 nM. Turning to B5, binding was characterised by a dissociation constant (Kd) of 0.0116 nM.

These data come from article PMC8989322 (2022).
